# IntAct's records for PubMed 17408621
# Biological target: ccnb2_human CCNB2 (UniProt O95067)
# Sequence of UniProt O95067 (O95067 whole entry): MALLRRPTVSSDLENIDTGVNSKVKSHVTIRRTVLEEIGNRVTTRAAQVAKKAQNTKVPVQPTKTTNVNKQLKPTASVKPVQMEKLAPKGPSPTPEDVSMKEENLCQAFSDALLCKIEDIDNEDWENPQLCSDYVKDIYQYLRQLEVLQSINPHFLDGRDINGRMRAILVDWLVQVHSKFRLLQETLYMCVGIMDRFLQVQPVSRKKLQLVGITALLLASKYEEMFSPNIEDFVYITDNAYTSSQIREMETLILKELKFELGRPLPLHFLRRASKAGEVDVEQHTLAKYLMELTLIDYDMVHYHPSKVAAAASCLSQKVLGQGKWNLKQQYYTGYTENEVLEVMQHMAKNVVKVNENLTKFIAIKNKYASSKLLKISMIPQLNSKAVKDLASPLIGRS
substance,measurement,value
"Filamin-A (Homo sapiens), P21333 S1436G",effect of a mutation on the interaction,disrupting interaction
